In article PMC12313861 one finds stoichiometry N data, which are given here for one substance.

The target in this experiment is ComFB signaling protein (Slr1970) (Synechocystis). As to the kind of experiment: SEC-MALS; size exclusion chromatography coupled to multiangle light scattering of ComFB; species of 40.5 kDa against theoretical monomer mass 20.4 kDa.

In the case of “ComFB signaling protein (Slr1970) (natural protein)”, the stoichiometry N (in general, a count of units in the complex or per binding partner) came to 2.
